Experimental data as given in US7071384B2, “Methods for commercial production of heterologous laccase in plant tissue and extraction of the laccase from plant seed” (Genencor International, Inc., priority 1997, dated 2006).

Experiments:
[1] = Storage stability of rGUS in flaked corn kernels; assay type: physicochemical
Method: Dry corn kernels (12% moisture, 500 g per batch) were cracked using a roller mill (Ferrel-Ross, Oklahoma City, Okla.), then flaked to 0.3 mm thickness using Roskamp flaking rolls (Model K, Roskamp Mfg., Inc., Waterloo, Iowa.). Seven 500-gram batches of flaked corn kernels were placed in zip-lock bags and stored at each of four different temperatures for up to 95 days. The storage stability study was performed in triplicate; three 50-g samples per time and per temperature. To determine the activity of GUS, a 20-g sample was taken from each of the three 50-g bags at the specified time and extracted with 200 ml of 20 mM Tris-HCl pH 7.9 containing 500 mM NaCl and 1 mM CaCl2. Extraction was carried out using a paddle mixer at ambient temperature for 30 min.

[2] = rGUS specific activity after three-step chromatography purification; assay type: biochemical
Text: Distribution of rGUS in the Corn Kernel Tissue Corn kernels (100 g) were soaked in deionized water for two days. In two days separation of germ, hull and endosperm was completed and soaked for 2–3 days. The first half was soaked for 2 days, and the other half for 3 days. The hulls, endosperm, and germ were manually separated. Each fraction was air-dried at ambient temperature and ground with a coffee grinder (Salton/Maxim Housewares Inc., Mont. Prospect,Ill.). rGUS activity and the moisture content of each ground sample were determined. rGUS activity was determined using the assay described by Jefferson and Wilson (Jefferson, R. A.; Wilson, K. J. (1991). In The GUS Gene Fusion system. In “Plant Molecular Biology Manual”, Vol. 1, B14, (S. B. Gelven, R. A. Schilperoort and D. P. S. Verma, eds.). Kluwer Academic Publisher, Dordrecht, Belgium. pp.1–33). One unit (U) of rGUS activity was defined as the amount of enzyme that converts one nmole of p-nitrophenyl β-D-glucuronide per minute at pH 7.0 and 37° C. Storage and Heat Stability
Purification Recombinant GUS was purified from ground kernels, full-fat germ and defatted germ using a three-step chromatography. Ground corn kernels (75 g), full-fat germ (7.5 g), and defatted germ (7.5 g) samples were extracted with 50 mM NaPi buffer pH 7.5 (buffer A) at 1:4 or 1:10 solid-to-liquid ratio as described in the previous section. Fifteen ml of DEAE-Toyopearl (Supelco, Bellefonte, Pa.) resin in buffer A were added to the centrifuged and filtered extract to adsorb (capture) rGUS. The slurry was mixed with a magnetic stirrer for 15 min at ambient temperature, filtered through a funnel-supported No. 1 filter paper, and washed with 400 ml of buffer A. The washed DEAE resin was packed into a glass column with an inside diameter of 1.5 cm. The adsorbed rGUS was eluted with 0.3 M NaCl in buffer A. The fractions containing rGUS activity were combined, ammoniumsufate (AS) was added to a final concentration of 1 M, and the solution was filtered through a 0.45 μfilter. […]

[3] = rGUS activity after extraction treatments (hexane defatting; SDS/ME buffer); assay type: physicochemical
Method: A portion of the germ sample prepared by the degermination process was defatted by using a Soxhlet apparatus. Forty grams of full-fat germ were extracted with 300 ml of hexane for five hours, and then air-dried at ambient temperature to remove the hexane.
All samples (flaked kernels, full-fat germ and defatted germ) were ground using a coffee grinder before protein extraction. The samples were extracted at 1:4 or 1:10 solid-to-liquid ratio with 50 mM NaPi buffer of pH 7.5. The extraction was carried out for 15 minutes at ambient temperature by using a magnetic stirrer for mixing less than 50-ml and a paddle mixer for greater than 50-ml volumes. After stirring, the suspension was centrifuged at 26,000 g for 25 min at 0° C., and then filtered through a 4-layer of cheesecloth. The extract was assayed for GUS activity (Hood et al., supra) and protein (Jefferson, R. A.; Wilson, K. J. (1991). In The GUS Gene Fusion system. In “Plant Molecular Biology Manual”, Vol. 1, B14, (S. B. Gelven, R. A. Schilperoort and D. P. S. Verma, eds.). Kluwer Academic Publisher, Dordrecht, Belgium. pp.1–33).
To determine whether a complete extraction of rGUS from corn kernels, full-fat germ and defatted germ was achieved, the remaining solids were stained with X-Gluc. […] The Western blot analysis of the spent solids confirmed the presence of unextracted rGUS. […]

[4] = Heat stability of rGUS in whole corn kernels; assay type: physicochemical
[5] = Large-scale custom milling of transgenic corn, rGUS activity retention; assay type: physicochemical; conditions: 1,000 kg corn milled, less than 1 min at 90° C., bagged at about 50° C., 2 h at 30° C., overnight at 10° C.
Method: The heat stability results obtained in the laboratory were validated on a large scale. During the processing of 1,000 kg of transgenic corn in a custom-milling plant located in Grinnell, Iowa, the corn was exposed for a short time (less than 1 min) to 90° C. The milled corn was bagged at approximately 50° C., transported at ambient temperature (30° C.) for two hours to Iowa State University, and then stored overnight at 10° C. before the rGUS activity was determined.

B1: rGUS: recombinant β-glucuronidase produced in transgenic corn kernels (protein)
chain: MLRPVETPTREIKKLDGLWAFSLDRENCGIDQRWWESALQESRAIAVPGSFNDQFADADIRNYAGNVWYQREVFIPKGWAGQRIVLRFDAVTHYGKVWVNNQEVMEHQGGYTPFEADVTPYVIAGKSVRITVCVNNELNWQTIPPGMVITDENGKKKQSYFHDFFNYAGIHRSVMLYTTPNTWVDDITVVTHVAQDCNHASVDWQVVANGDVSVELRDADQQVVATGQGTSGTLQVVNPHLWQPGEGYLYELCVTAKSQTECDIYPLRVGIRSVAVKGEQFLINHKPFYFTGFGRHEDADLRGKGFDNVLMVHDHALMDWIGANSYRTSHYPYAEEMLDWADEHGIVVIDETAAVGFNLSLGIGFEAGNKPKELYSEEAVNGETQQAHLQAIKELIARDKNHPSVVMWSIANEPDTRPQGAREYFAPLAEATRKLDPTRPITCVNVMFCDAHTDTISDLFDVLCLNRYYGWYVQSGDLETAEKVLEKELLAWQEKLHQPIIITEYGVDTLAGLHSMYTDMWSEEYQCAWLDMYHRVFDRVSAVVGEQVWNFADFATSQGILRVGGNKKGIFTRDRKPKSAAFLLQKRWTGMNFGEKPQQGGKQ
In the case of B1, the “loss of rGUS activity” value ([1]; flaked kernels at 10° C. for up to 3 months) is reported as 23%, the “loss of initial GUS activity” value ([1]; flaked kernels at 25° C. after three weeks (sample spoilage)) is reported as 13% and the “loss of initial rGUS activity” value ([1]; flaked kernels at 37° C. for one week) is reported as 23%. For the same molecule, the rGUS activity loss ([1]; flaked kernels at −29, 10, or 25° C. for up to 2 weeks) was “no significant loss of rGUS activity”, the “loss of rGUS activity” value ([1]; flaked kernels at −29° C. for up to 3 months) was 14% and the Specification activity ([2]; purified from defatted germ, solid-to-liquid ratio 1:10) was 36,000 U/mg. For the same molecule, the Specification activity ([2]; purified from flaked corn, solid-to-liquid ratio 1:4) was 36,000 U/mg, the Specification activity ([2]; purified from full-fat germ, solid-to-liquid ratio 1:10) was 45,000 U/mg and the “rGUS activity after extraction with detergent” value ([3]; 1% (v/v) SDS and 2% (v/v) ME in extraction buffer) was “inactive”. The “rGUS activity after corn oil extraction” value ([3]; germ defatted with hexane (˜60° C.)) was “did not affect the activity of rGUS”, the “rGUS activity after heating” value ([4]; kernels, 50° C. for up to six days) was “fully retained” and the “loss of initial rGUS activity” value ([4]; kernels, 70° C. for 8 hours) was 60%. For the same molecule, the “rGUS activity after heating” value ([4]; kernels, 70° C. for one hour) was “did not significantly affect rGUS activity”, the “residual rGUS activity” value ([4]; kernels, 90° C. for one hour) was “No residual rGUS activity” and the “residual rGUS activity” value ([4]; kernels, 125° C. for 10 minutes) was “No residual rGUS activity”. The “rGUS activity after heating” value ([4]; whole kernels, 50° C. for up to eight hours) was “did not affect rGUS activity” and the rGUS activity loss [5] was “no loss of rGUS activity”.
